In a protein production outcome set (Wang et al. 2014):

Experiment: label from the status in PepcDB records
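Further: failed if final PepcDB status was selected cloned or expressed and not failed if soluble or beyond.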

Sequence	protein production
MIKYLIVMLIPFVIVYLLMPKFIEFANEKGFVDKPTGRKKHDKLTPLIGGVVMYIGFFATYLFGIDSTRQLSQTFIIFIASTLVIIIGVIDDYYKGKGKEFPIYPRVIIQILAATMVFKAGIVFRGITNPFTGEFTQFSGWIQYILTITWIFGVTTVINWSDGMDGLAGSISIISAMTMFVVALAKGQFNSAYMSITLVGSILAFLRYNRHPARVFMGDSGANFLGFILAIIALEGAFKQATALSILVPVLALGVPIFDNIFVIFRRFQSGKPVYEADRSQIHYRLQERGMSVKQIVSYICILSGCLSLVSLLIIMIIL	failed
MKKKSLIILSIIVLIFVCITLYLTREHIMVFYKLITNGEVVKSYLERFGPWAAVIFFVFQILQVVIFFIPGEVIQAAGGYIFGALGGTLLSFFGIAVGSAILFYICQKFGKKLVQRFVPKDMYDKLEKILNSPKFKLILVILFFLPGAPKDSLIMVCALSNITIGHFIIFSMIGRIPALVASSFMGANLAEGNIVGVIIIGVIALIACALGVIFRKDVFKYMEKL	failed
MQEKGNISIHTENIFPIIKKFLYSDHEIFLRELVSNAVDATQKLKRLAALGEYPGELGDTKVTVSVNKEAGTITITDRGIGMTAEEIKKYINQIAFSGATEFIEKYKDKTDTNQIIGHFGLGFYSAFMVSSNVEINTLSYQPNSKAAHWICDGSTEFEIKLSDKAERGSEITLHIAEDSLEFLETSRIHSILDKYCRFLPVEIEFEGEIINNPSPLWTKQPSELKDEDYIAFYKELYPMSEDPLFWIHLNVDYPFSLTGVLYFPKLKKDFEFQRNKIQLYSRQVFITDEVKDIVPEFLMLLHGVIDSPDIPLNVSRSFLQADGNVKKINSHITKKVADKLNELFNNDRAGFEAKWDDIGMFVKYGMISEEKFYDKAKNFCLLKNTDNALSTIEEYEQKIKPIQTDKNDKLVYLYSNNAVAQDIFIQAAKKKQYDVLLLDSVIDSHFLGQLESKLEKVQFKRIDSESVDKLIEKDEPKLSLLTKEQETQAEELFKKVVNNGKVIIKLEHLATDDMPVTIVISEFMRRMKDMAATSGQSMFGGFELTHEVVVNTNHPLIAKAIAAPEAEGEQLIKQTYQLGLLSQGLLQGAELSAFIERNMNALVK	failed
MKILTQSLPNSSAAYLQGYLRENTDSSVTYPTVIIVPGGSYTHIPERQAEDLALAWVARGYQAFFLRYSFISEKTPLLPNPVIELAQSVAAIHAHATTWHVDLRRLAVAGFSVGGHITALFNDWWSEADFNQQAHTTPEQLKVQAVILGYPVISPDLGFPTDAATLATWSTTPKKIAADQHVTAANAPTFIWVTANDPLVPVQNALAYAQASLTHGVDTELHVFHNGPHGLALANSVTAWKPGTDLPHVAHWLDLATEWLQDLKLEHHHHHH	not failed
MKRFCNGLLASALVLSLLLTGCGAAGGQQPAQASGPEQPAVRTVTDAEGNVVEVPQDISRIAVTPLPWSSVVSAIDGGSQRLASINPGALKAYSGSFFAKLDKNYATLDDTSIGSDFSINVEELLNRQVQVVIIWEYQTAEAAKLKDVGIVPVMVKNGNVQELQDSFKAVGQLLGKEERAKWVNDEYAKAYEKMKSYGEQVKKADKPRVLYLKRSDLTLQGNDNFIKESMELAGADNIAAEAKSITMEEILKLDPEIILLSDFDKFLPQDLYENRIEGQDWSSVSAVVNKRVYKTPVGIYRWDAPGVETPLMMFWLGKMLQPEIFSEVDLKAEMKAFYQDVFDYSLTDEDFGQIFNDKANAASERRIS	failed
MKKILILFFLLFTVNAFTQNYADYMSSGLDAYARSDWSSALFSFQKAMEVSKNSLDEPLYWLIMANASARNYTVALNDIETFLKRFPNSSKAAEVIYQQGRICCLSAKHDQSINILYGFLRKYPNHRQTASAYYWIGENLYMVGRLKDARTIFSRVIIDYPSSAKVEPSRYKIALIDQASTQDELLKLLKISHEELLKLSEESEKNKKIYEQTIAAYQRQSSDAGGDMRIAELSEQLKMERKHNEELHDQLVMLELKNQELLATLAKMDAKYTSEMAADGETPAADYSDPKAKRAAIEALIKKAKILQSMYNQLLEGNGQ	failed
MDDNTKELEQYWDEFSQEYEEIQNESLVDIGQQLKEFLLAEKLLPTSQFLDLAGGTGKYIPHFSNFTDSYHLVDLSAKMLEFAKNKSADSNKITFTHQEQNKFLKNTKENTYDFVFSAMNPALESKEALVELNRIANGNVGILRLIFDEDNLFSQVEQLYLPNQEQNKEAQMLLYKVWLEELGWEFKSKKFRFFLSEKVSSQFFSDYFSDELSNAELAALTQLFFSETEIREMERLVIFELLYWEKC	failed
MWFQNYLLAKFMMNRKGLMANYRVWRRRWFYPLISVVVAVSLCLGTPLVGRAIDLRPLLLQGVQVLQLSNISDRQEVDLGNQMNQQLRSSEVKISRNAEITRYVDQIGQRLVANSDRPNLPFTFQVVENDAVNAFATLGGFVYIHTGLLKTADNEAELASVIAHEIGHIGGRHLVKQMRQRALASGLASATGLDRNTAVGLGVELALNRPRSRQDEFDADTRGLRTLTRAGYAPSAMVSFMQKLTKGGGSVPAFLSTHPATGDRITSLRRAINSQGSNGRDGLDNAAYRARIRSIL	failed
MSGSLLLLFVFLSAFLAPPLSRLLRMPVPVGELVIGLLLGHFLAQGVALPEILGFLADFGFLLLMFLAGLEVDFNLLRQLERRHFVFYALYVVGMFLGAGLLAGLLGVGLAQALILALVSIGLMVATLRDMGILGRAFAKRVLILGVLGEVASLFGLTAMEKAAHYQGLLSLLKEVGIIALFFLLLFLAFRLAGLFLWWYPEVGRRLVYEEDPSAMGIRLSLALMFAAAVMSGLVGLESVLGAFLAGMILSYFLQKKHDLEAKLSAMGYGFLIPIFFIRTGMGIDLSGLDGRLLLEVGQALLLMLLIRLLPAPFLLLGGFRLREAFLAALLLAYPFTLMIAGTEIARSAHLLDERAALVLLLAAALSSLLFPWTAKMLLRFLR	failed
QGEEMNRSQEVTRDEESTRSEEVTREEMAAAGLTVTVTHSNEKHDLHVTSQQGSSEPVVQDLAQVVEEVIGVPQSFQKLIFKGKSLKEMETPLSALGIQDGCRVMLIGKKNSPQEEV	failed
MRKINIFKGKHNPQRTAIDFFKYVGPGLLVTVGFIDPGNWASNVSAGSDYGYSLLWIVTLSTIMLIILQHNAAHLGIVTGDCLSEAVSKKFKPWLTNIILYSAIGAAISTAMAELLGGAIALNMLFRLPIKIGTLIMLSLVIWMLFSSSYKKLERWIIGFVSIIGLSFIFELLLVKVNWQVAAVSFVSPSFPKNSMPIIMSVLGAVVMPHNLFLHSEIIQSRQWNVEKEDVIKRQLRYEFLDTIISMIVGFAINSAMVLLAASTFFKMHVSVSELSQAQALLKPLLGGSASVVFALALLFSGIASTVTAGMAGGSIFAGIYKEPYDIEDSHTQIGVIITMVLAAVIIFFIKDPFKGLIYSQMILSIQLPITIFTQIYLTSSKKVMGKFSNSLLDRVLLGIIAVIVTALNIALLVSYF	failed
MAKYNEIAKKKREAKADRKRAIHGDPLTNKLKTRTPVPSVSGKRQRKLLRKWRREQKDMVEKGLVTMEDVEMASAQAASEDSKKSPRKFSVKKSLKLNKLNNKGKKKKNQKASGEKSADCMLE	failed
MEVSEGIEIIRGDPRRALIKLSGPLIVAMLLTSIYNLVDAVWVAGLGGEALAAIGFVTPIYMILVGLSNGLGAGAASSVSRCLGAGDEEGMNNSASHTIIITLAVSIILTVIIEILLRDILLSLGAAGALKPAMEYGSVVFAGTLFTLFPGAAYGILRSEGDARRPMYAMGLSAVLNMVLDPILIYTAGWGIAGAAWATVISQLLVSLLIIYWFLAGRTFTSIGWSHFRADRGVVWSILSVTIPASAEFLVMSMVTALLNWILTSVAGTSAVAVYSAGWRIVMLAIVPVISVATALVSVSGVAYGSRNFENLEVAHGYSIRLGLLIAGATAALTFVLAPWIAWIFSYSQASSHLAPRITGFLRVICLFYIFLPPGIMSGSIFQGAGRGMTSLMLSVIRQVLLVAVFAYLLAVTLGLGEVGVWWGVVAGDIGGSLVAYLWARLFIGRLRRYAA	failed
MNQTFIYYTVLFLIIFITISNLVENYRYSPKKIKNIIGIAFLLQIIRIVSLIALALVSDQRYISLFKYVGFLDIIYIPLMALIAFYILLRSDKINFQFFKFAPMVLTGFYIGVITIFKPFFKMSWEYGYVITTEKQILLKSIYILFLVAILSFLILFKKENHSDKKGIVFLGVTLAFIIIENSLELLGVRFLNGAIISELILCILGFYIVLTFKKNRISIRDCIKS	failed
MSLSSVKDFPKIKAIRSFIIGGVGSGGDYHNVKGGHWLIDSDISTPASKWEQYKKSRTSWGINVLGSFLVEIEATDGTVGFATGFGGPPACWLVHQHFERFLIGADPRNTNLLFEQMYRASMFYGRKGLPIAVISVIDLALWDLLGKVRNEPVYRLIGGATKERLDFYCTGPEPTAAKAMGFWGGKVPLPFCPDDGHEGLRKNVEFLRKHREAVGPDFPIMVDCYMSLNVSYTIELVKACLDLNINWWEECLSPDDTDGFALIKRAHPTVKFTTGEHEYSRYGFRKLVEGRNLDIIQPDVMWLGGLTELLKVAALAAAYDVPVVPHASGPYSYHFQISQPNTPFQEYLANSPDGKSVLPVFGDLFIDEPIPTKGYLTTADLDKPGFGLTINPAARAKLIPSDYLFKVPEIPQNLSTGKEIKSNEQPDKPNGTLDSLAAKVESLTTSTSSEGHHHHHH	not failed
MKFEAIAVEKIPLIHEGDNLPSIICEKIGLQDRDIMIIASTIVAKAEGEIFRLEDITPGEEALEIAARTGKDPRFIQAVLSKSREVFVETPFMLVTTLAGHTCVNAGIDESNIENGFLLYPPENPDASALKIGKELEKLSGKKLSIIITDTNGRAFKIGQTGVAIGIYNIKPVKRWIGEKDLFGKVLEITEQAIADELAGAANLLMGEGAGGIPVVIIRGLDYYCEGDTSIKESYRPENMDVIKQGLRCLRNKK	failed
MDEVNVIARITGVSRVRTFERDGREGRFISLDIMDATGSTTYTLWNNDVNLVEELGLKEGDAVKILWAQPRRRDDKVTLTHTSLTRVVPGLEHHHHHH	failed
MTFPPPDPAVAPPAEPASRAPHGRPATSGQSASATTVGSGAPLPASSALASTPSQAGPTGRKRPGQSTVTARTGAPNLPDPLGDNVVGERAVVPPIQQGKSRTALTNELNAEPVAGTVPAAPGGDLFIDAVLAQSYRHFFGPTSQPAVPPRQQVISITRLMEKLAYLKPADQALVREAFQFSDEAHLGQYRQSGEPYITHPVAVAELCADWKLDVQSIMAALLHDVMEDQGITKSELAEKFGPKVSELVDGLTKLDKLEFQSREQAQAESFRKMLLAMARDVRVILVKLADRTHNMRTLDFVPPEKRRRIALETMEIYAPIAHRLGLNTIYRELQELSFKVGSPFRYATLEKAVKAARGNRREVVKRILEAAQSALAGAGIVAELSGREKTLYSIYRKMHDKQLSFSQVLDVYGFRVVVETQMHCYMAMGALHGLYKPMPGKFKDYIAIPKINGYQSLHTTLVGPFGTPVEFQIRTRGMHQIAEAGVAAHWMYKHQADHANDIQQQAHQWLQSLLDIQSQTGDSQEFLEHVKIDLFPDAVYVFTPKGHIRALPRGATALDFAYAVHSDLGNQCVAVKINNELLPLRTELKSGDIVEVVTAPYSKPNPSWLAFVRTGKARAAIRHYLKTTKLDEAIQLGERLLEQSTRQLGIELKAVPQSVWDRMIQWTGNKLKEDIFADLALGRRVPAVVARRMEILLQELSGDVDSALLAAVQTFAGEDAPAVPITGDEGMSMIFSACCRPIPGDSIVGYLGKGEGLQIHVQDCKVAKRLHSKDPEHWIEVMWAKKTTRAFDVSIKIMVRNVKGIVARVAADLTSADANVAHVAMEPQQGGHQEATYMQFVIQVQNRLHLANVMRALRRNPDVIRIFRDRNDG	failed
